Assay results taken from paper PMC7260205, “Steric occlusion regulates proximal interactions of acyl carrier protein domain in fungal fatty acid synthase” (Communications Biology, 2020).

Molecular target: the molecule itself
Assay: cryo-EM structure; FAS1-His6 and FAS2 co-expressed and purified as one complex; 1-2 mg/ml in TBS (50 mM Tris pH 7.4, 150 mM NaCl) on holey gold grids; WT apo or with acetyl-CoA, malonyl-CoA and NADPH; mutants with substrates; D3 symmetrised maps; for H1564A and H740A also symmetry expansion, signal subtraction and focused classification

B1: S. cerevisiae fatty acid synthase FAS2 polypeptide (α-chain), wild type (enzyme)
chain: MKPEVEQELAHILLTELLAYQFASPVRWIETQDVFLKDFNTERVVEIGPSPTLAGMAQRTLKNKYESYDAALSLHREILCYSKDAKEIYYTPDPSELAAKEEPAKEEAPAPTPAASAPAPAAAAPAPVAAAAPAAAAAEIADEPVKASLLLHVLVAHKLKKSLDSIPMSKTIKDLVGGKSTVQNEILGDLGKEFGTTPEKPEETPLEELAETFQDTFSGALGKQSSSLLSRLISSKMPGGFTITVARKYLQTRWGLPSGRQDGVLLVALSNEPAARLGSEADAKAFLDSMAQKYASIVGVDLSSAASASGAAGAGAAAGAAMIDAGALEEITKDHKVLARQQLQVLARYLKMDLDNGERKFLKEKDTVAELQAQLDYLNAELGEFFVNGVATSFSRKKARTFDSSWNWAKQSLLSLYFEIIHGVLKNVDREVVSEAINIMNRSNDALIKFMEYHISNTDETKGENYQLVKTLGEQLIENCKQVLDVDPVYKDVAKPTGPKTAIDKNGNITYSEEPREKVRKLSQYVQEMALGGPITKESQPTIEEDLTRVYKAISAQADKQDISSSTRVEFEKLYSDLMKFLESSKEIDPSQTTQLAGMDVEDALDKDSTKEVASLPNKSTISKTVSSTIPRETIPFLHLRKKTPAGDWKYDRQLSSLFLDGLEKAAFNGVTFKDKYVLITGAGKGSIGAEVLQGLLQGGAKVVVTTSRFSKQVTDYYQSIYAKYGAKGSTLIVVPFNQGSKQDVEALIEFIYDTEKNGGLGWDLDAIIPFAAIPEQGIELEHIDSKSEFAHRIMLTNILRMMGCVKKQKSARGIETRPAQVILPMSPNHGTFGGDGMYSESKLSLETLFNRWHSESWANQLTVCGAIIGWTRGTGLMSANNIIAEGIEKMGVRTFSQKEMAFNLLGLLTPEVVELCQKSPVMADLNGGLQFVPELKEFTAKLRKELVETSEVRKAVSIETALEHKVVNGNSADAAYAQVEIQPRANIQLDFPELKPYKQVKQIAPAELEGLLDLERVIVVTGFAEVGPWGSARTRWEMEAFGEFSLEGCVEMAWIMGFISYHNGNLKGRPYTGWVDSKTKEPVDDKDVKAKYETSILEHSGIRLIEPELFNGYNPEKKEMIQEVIVEEDLEPFEASKETAEQFKHQHGDKVDIFEIPETGEYSVKLLKGATLYIPKALRFDRLVAGQIPTGWNAKTYGISDDIISQVDPITLFVLVSVVEAFIASGITDPYEMYKYVHVSEVGNCSGSGMGGVSALRGMFKDRFKDEPVQNDILQESFINTMSAWVNMLLISSSGPIKTPVGACATSVESVDIGVETILSGKARICIVGGYDDFQEEGSFEFGNMKATSNTLEEFEHGRTPAEMSRPATTTRNGFMEAQGAGIQIIMQADLALKMGVPIYGIVAMAATATDKIGRSVPAPGKGILTTAREHHSSVKYASPNLNMKYRKRQLVTREAQIKDWVENELEALKLEAEEIPSEDQNEFLLERTREIHNEAESQLRAAQQQWGNDFYKRDPRIAPLRGALATYGLTIDDLGVASFHGTSTKANDKNESATINEMMKHLGRSEGNPVIGVFQKFLTGHPKGAAGAWMMNGALQILNSGIIPGNRNADNVDKILEQFEYVLYPSKTLKTDGVRAVSITSFGFGQKGGQAIVVHPDYLYGAITEDRYNEYVAKVSAREKSAYKFFHNGMIYNKLFVSKEHAPYTDELEEDVYLDPLARVSKDKKSGSLTFNSKNIQSKDSYINANTIETAKMIENMTKEKVSNGGVGVDVELITSINVENDTFIERNFTPQEIEYCSAQPSVQSSFAGTWSAKEAVFKSLGVKSLGGGAALKDIEIVRVNKNAPAVELHGNAKKAAEEAGVTDVKVSISHDDLQAVAVAVSTKK
notes: Fatty acid synthase subunit alpha (FAS2 gene product), S. cerevisiae strain BJ2168, gene amplified from genomic DNA into NcoI-digested pET-15b(+); holds the ACP domain (residues 140-302), KR and KS domains; Serine 180 of the ACP domain is called the phosphopantetheine attachment site; No tag is named for FAS2; also called JWL03; holds the ACP domain; source: E. coli BL21, co-expressed with …
B1: binds.
